From patent US20030104352

Target: T1, LtrA (L1.LtrB group II intron-encoded protein) (Lactococcus lactis) (UniProt P0A3U0)
T1 sequence: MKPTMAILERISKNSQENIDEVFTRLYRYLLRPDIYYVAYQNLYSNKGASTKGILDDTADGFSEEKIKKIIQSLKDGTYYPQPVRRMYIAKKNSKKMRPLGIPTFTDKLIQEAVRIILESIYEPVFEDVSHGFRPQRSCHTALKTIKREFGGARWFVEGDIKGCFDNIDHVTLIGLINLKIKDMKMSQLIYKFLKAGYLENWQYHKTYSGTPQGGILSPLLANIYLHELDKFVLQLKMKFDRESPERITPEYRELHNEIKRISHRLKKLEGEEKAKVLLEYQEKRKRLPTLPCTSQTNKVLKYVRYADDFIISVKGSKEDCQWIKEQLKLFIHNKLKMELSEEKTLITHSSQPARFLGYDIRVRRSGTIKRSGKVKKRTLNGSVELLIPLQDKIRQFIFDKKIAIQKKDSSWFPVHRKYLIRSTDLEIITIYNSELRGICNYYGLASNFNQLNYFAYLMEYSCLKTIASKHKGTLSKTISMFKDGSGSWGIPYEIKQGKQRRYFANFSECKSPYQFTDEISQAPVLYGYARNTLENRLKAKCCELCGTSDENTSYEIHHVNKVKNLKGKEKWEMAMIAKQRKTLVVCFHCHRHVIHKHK
Test: cell_activity
Details: for binding signal (mutability value): doped target pool selection; for activity: after IPTG induction

L1.LtrB deltaORF intron RNA ; L1.LtrB target C-7A
binding signal (mutability value) ([24 (-7 C>A)], preferred over wild type): 3.83

L1.LtrB deltaORF intron RNA ; L1.LtrB DNA target -30 to +15
activity (% TetR colonies) (100 uM IPTG, ~70% without IPTG): 100

L1.LtrB deltaORF intron RNA ; L1.LtrB target G-21C
binding signal (mutability value) ([10 (-21 G>C)]): -0.9

retargeted L1.LtrB intron HIV1-4069s ; HIV-1 pol target 4069s
activity (also inserted in human cells (p89)): > 60 % mobility

L1.LtrB deltaORF intron RNA ; L1.LtrB target G-21T
binding signal (mutability value) ([10 (-21 G>T)], absent from active sites): -1

L1.LtrB deltaORF intron RNA ; L1.LtrB target G-21A
binding signal (mutability value) ([10 (-21 G>A)]): -0.6

retargeted L1.LtrB intron HIV1-4021s ; HIV-1 proviral target 4021s
activity: > 60 % mobility
